Target: T1, 인간 TIGIT-His (human, UniProt Q495A1 22-141)
T1 construct: extracellular domain; also called TIGIT-6x His; TIGIT 항원
T1 sequence: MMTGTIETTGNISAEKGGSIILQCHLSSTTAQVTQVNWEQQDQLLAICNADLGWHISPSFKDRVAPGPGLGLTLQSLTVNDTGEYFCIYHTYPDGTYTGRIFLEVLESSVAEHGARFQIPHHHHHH
Assay: BLI (Octet QK), antibody on AHC biosensor, human TIGIT-His 15 nM ~ 1.88 nM, 1:1 global fit

Kd: 3.43 nM
koff: 0.00136 s⁻¹
kon: 397000 M⁻¹ s⁻¹
B1: SA2209 (antibody, V domains shown)
VH: QVQLQESGPGLVKPSGTLSLTCAVSGVSIRQGHWWSWVRQPPGKGLEWIGEIYQTGRTNYNPSLKSRVTISVGKSRNHISLKLSSVTAADTAVYYCTTGSGWYPIDYWGQGTLVTVSS
VL: SYELTQDPAVSVALGQTVRITCQGDSLRGFYASWYQQKPGQAPLLVLYGVKDRPSGIPDRFSGSRSGTTASLTITGAQAEDEADYYCNSRDSNGAMMFGGGTKLTVL
notes: also called 항-TIGIT 항체; anti-TIGIT antibody

Reference: patent KR20220072468A (dated 2022)
